Data: patent publication US20190194714A1, “REAGENT FOR GLUCOSE SENSOR, GLUCOSE SENSOR, METHOD FOR MANUFACTURING GLUCOSE SENSOR, AND GLUCOSE MEASURING DEVICE” (NATIONAL INSTITUTE OF ADVANCED INDUSTRIAL SCIENCE AND …, priority 2016, published 2019)
One block for each molecule: values may come before it.

Columns and labels:
[1] = tested on: Aspergillus terreus var. aureus FAD-GDH (flavin adenine dinucleotide glucose dehydrogenase), enzyme No. 1, host Pichia pastoris; test: Michaelis constant of FAD-GDH enzyme No. 1; format: biochemical; conditions: 110 kDa
[2] = substrate: OC[C@H]1OC(O)[C@H](O)[C@@H](O)[C@@H]1O; test: Michaelis constant of FAD-GDH enzyme No. 2; format: biochemical, Thermoascus crustaceus; conditions: other: enzyme No. 2, host Escherichia coli, 60 kDa
[3] = substrate: OC[C@H]1OC(O)[C@H](O)[C@@H](O)[C@@H]1O; test: Michaelis constant of FAD-GDH enzyme No. 3; format: biochemical, Thermoascus crustaceus; conditions: other: enzyme No. 3, host Pichia pastoris, 90 kDa
[4] = substrate: OC[C@H]1OC(O)[C@H](O)[C@@H](O)[C@@H]1O; test: Michaelis constant of FAD-GDH enzyme No. 4; format: biochemical, Thermoascus crustaceus; conditions: other: enzyme No. 4, host Saccharomyces cerevisiae, 90 kDa

Km [1]: 82 mM
Molecule: OC[C@H]1OC(O)[C@H](O)[C@@H](O)[C@@H]1O (stereo partly shown) [glucose]

B1: Thermoascus crustaceus FAD-GDH (flavin adenine dinucleotide glucose dehydrogenase), enzyme No. 2, host Escherichia coli (Thermoascus crustaceus) (protein)
chain: TSYDYIIVGGGTSGLVVANRLSEDSSVSVLVVEAGDSVYNNPNVTGTGAYGAAFGTSIDWAYQTIKQPYAGDLTQTIRAGKALGGTSTINGMAYTRAEDVQIDAWEAIGNQGWNWSTLFPYYLKSERFQIPINAQSAAGANWNPAYHGMNGPLTTGWTYEMMNGSMAEVLNATYQNLGISYLPDVNGGKMHGYTLFPRTVNRALDVREDAARAYYYPFESSRPNLSVMLNTYGNRIVWANATNTNSVTATGVEVTLSDGTVQTIQANKEVILSAGSLISPAILERSGVGNPTVLSRFGIPLVVNLTTVGENLQDQMNTEFIYLSNATFSGQSTFLGHPTAADLFGSNVTNVAKSVQSSLPHYAATVSEASNGTMSAAVLQKLFQLQYNIIFNNPTPIAEILVAPSGSKFITEYWALLPFARGNVHIGSANPLDRPVINPNYMMFEWDMQEQIASGKFVRKLYGTAPFTNWATGEATPGYSTLPANATDGQWAQWISSVSRSNFHPVGTAAMMPRDMGGVVDSNLVVYGTNNVRVIDASVLPLQVCGHLVSTLYAVAERASDLIKAGQV
Km [2]: 4.6 mM

B2: Thermoascus crustaceus FAD-GDH (flavin adenine dinucleotide glucose dehydrogenase), enzyme No. 3, host Pichia pastoris (Thermoascus crustaceus) (protein)
chain: B1 chain
Km [3]: 2.8 mM

B3: Thermoascus crustaceus FAD-GDH (flavin adenine dinucleotide glucose dehydrogenase), enzyme No. 4, host Saccharomyces cerevisiae (Thermoascus crustaceus) (protein)
chain: B1 chain
Km [4]: 3.2 mM
